According to patent US20240218057A1 (ROCKEFELLER UNIVERSITY, published 2024):

How the values were obtained:
[1] = biological target: SARS-COV-2 RBD (SARS-COV-2, UniProt P0DTC2 319-539); experiment: ELISA, RBD coated on plate
[2] = biological target: SARS-CoV-2 receptor-binding domain (WT RBD; S protein residues 319-539) (SARS-CoV-2, UniProt P0DTC2 319-539); experiment: BLI (Octet Red), IgG on protein A biosensor, WT RBD in solution, 1:1 fit

| Binder | EC50 [1] [ng/mL] | Kd [2] [nM] |
| --- | --- | --- |
| C580 (antibody, V domains shown) VH: EVQLVQSGAEVKKAGESLKISCNSSGYSFTNYWIAWVRQVPGKGLEWMGIIYLGDSDTRYSPSFQGRVTISADKSISAAYLHWSSLKASDTAIYYCARGGPPGGVKLELTDFWGQGTLVTVSS VL: not shown | 1.81 |  |
| C044 (antibody, V domains shown) VH: EVQLVESGGGLVQPGGSLRLSCAASGFTFSSYSMNWVRQAPGKGLEWVSYISSSSSTIYYADSVKGRFTISRDNAKNSLYLQMNSLRDEDTAVYYCAREAHDGALTDYGDYLNWFDPWGQGTLVTVSS VL: SYELTQPPSVSVAPGKTARITCGGNNIGSKSVHWYQQKPGQAPVLVIYYDSDRPSGIPERFSGSNSGNTATLTISRVEAGDEADYYCQVWDSSSDHLYWVFGGGTKLTVL |  | 189 |
| C572 (antibody, V domains shown) VH: EVQLVESGGGLIKPGRSLRLSCTASGFTFGDYAMTWFRQAPGKGLEWVGFIRSKAYGGTTGYAASVKYRFTISRDDSKSIAYLQMDSLKTEDTAVYYCTRWDGWSQHDYWGQGTLVTVSS VL: DIVMTQSPLSLSVTPGEPASISCRSSQSLLHSNGNNYFDWYLQKPGQSPQLLIYLASNRASGVPDRFSGSGSGTDFTLKISRVEAEDVGVYYCMQVLQIPYTFGQGTKLEI | 2.9 |  |
| C573 (antibody, V domains shown) VH: QVQLQESGPGLVKPSGTLSLTCAVSGGSISTVNWWSWVRQPPGKGLEWIGEIHHSGNTNHNPSLRSRVTISVDKSKNQFSLKLRSVTAADTAVYYCARDGGRPGDAFDLWGQGTMVTVSS VL: QSALTQPASVSGSPGQSITISCTGTSSDVGGYNYVSWYQQHPGKVPKVMIYDVSNRPSGISNRFSGSKSGNTASLTISGLQAEDEADYYCNSYRSNSTRVFGTGTKVTV | 2.2 |  |
| C570 (antibody, V domains shown) VH: QVQLQESGPGLVKPSETLSLTCTVSGASISSYYWSWIRQPPGKGLEWIGYIYYSGSTNYNPSLKSRVTISLDTSKNQFSLQLSSVTAADTAVYYCATYYFDNSGYSYGLDVWGQGTTVTVSS VL: DIQMTQSPSSLSASVGDRVTIACRASQSISSYLHWYQQQPGKAPKLLIYAVTNLQSGVPSRFSGSGSGTDFTLTISSLQPEDFATYYCQQSYSLPQTFGQGTKVEIK | 0.74 |  |
